From patent publication US20210388110A1
Residue numbers refer to the chain shown, from its start.

B1: TR01H040-E2702GsKsc/H0610-E2704sEpsc/L0204-k0 (bispecific antibody, human IgG4 S228P, kappa, N297A)
heavy 1: QVQLVESGGGLVQPGRSLRLSCAASGFTFSNAWMHWVRQAPGKGLEWVAQIKDKSQNYATYYAESVKGRFTISRADSKNSIYLQMNSLKTEDTAVYYCRYVHYSASYGVDAWGQGTTVTVSSASTKGPSVFPLAPCSRSTSESTAALGCLVKDYFPEPVTVSWNSGALTSGVHTFPAVLQSSGLYSLSSVVTVPSSSLGTKTYTCNVDHKPSNTKVDKRVESKYGPPCPPCPAPEFRGGPKVFLFPPKPKDTLMISRTPEVTCVVVDVSQEDPEVQFNWYVDGVEVHNAKTKPREEQFASTYRVVSVLTVLHQDWLNGKEYKCKVSNKGLPSSIEKTISKAKGQPREPQVYTLPPSQKEMTKNQVSLTCLVKGFYPSDIAVEWESNGQPENNYKTTPPVLDSDGSFFLYSKLTVDKSRWQEGNVFSCSVMHEALHNRYTQKSLSLSP
heavy 2: QVQLVQSGAEVKKPGASVKVSCKASGYTFTDYEMHWIRQPPGQGLEWIGAIDGKTPDTAYSQKFKGRVTLTADKSTSTAYMELSSLTSEDTAVYYCTRFYSYTYWGQGTLVTVSSASTKGPSVFPLAPCSRSTSESTAALGCLVKDYFPEPVTVSWNSGALTSGVHTFPAVLQSSGLYSLSSVVTVPSSSLGTQTYTCNVDHKPSNTKVDKRVESKYGPPCPPCPAPEFRGGPKVFLFPPKPKDTLMISRTPEVTCVVVDVSQEDPEVQFNWYVDGVEVHNAKTKPREEQFASTYRVVSVLTVLHQDWLNGKEYKCKVSNKGLPSSIEKTISKAKGQPREPQVYTLPPSQEEMTKNQVSLTCLVKGFYPSDIAVEWESNGQPENNYKTTPPVLDSDGSFFLYSKLTVDKSRWQEGNVFSCSVMHEALHNHYTQESLSLSP
light: DIVMTQSPLSLPVTPGEPASISCRSSQSPVHSNRNTYLHWYQQKPGQAPRLLIYKVSNRFRGVPDRFSGSGSGTDFTLKISRVEAEDVGVYYCGQGTQVPYTFGQGTKLEIKRTVAAPSVFIFPPSDEQLKSGTASVVCLLNNFYPREAKVQWKVDNALQSGNSQESVTEQDSKDSTYSLSSTLTLSKADYEKHKVYACEVTHQGLSSPVTKSFNRGEC
B2: TR01H067-E2702GsKsc/GCH054-E2704sEpsc/L0212-k0 (bispecific antibody, human IgG4 S228P, kappa, N297A)
heavy 1: B1 heavy 1 with A75D, I81L, S104A
heavy 2: B1 heavy 2 with K19T, Q43E, K54E, Q62E
light: B1 light with S25P, R61S, G94Y
B3: TR01H113-E2702GsKsc/GCH065-E2704sEpsc/L0011-k0 (bispecific antibody, human IgG4 S228P, kappa, N297A)
heavy 1: B1 heavy 1 with L11V, R16G, Y62V, S104A, S106G, A111I
heavy 2: B1 heavy 2 with K19T, Q43E, K54P, Q62E
light: B1 light with S28P, P29L, R61S
B4: TR01H082-E2702GsKsc/GCH065-E2704sEpsc/L0011-k0 (bispecific antibody, human IgG4 S228P, kappa, N297A)
heavy 1: B1 heavy 1 with A75D, I81L, S104A, S106G
heavy 2: B1 heavy 2 with K19T, Q43E, K54P, Q62E
light: B1 light with S28P, P29L, R61S
B5: TR01H113-E2702GsKsc/GCH094-E2704sEpsc/L0011-k0 (bispecific antibody, human IgG4 S228P, kappa, N297A)
heavy 1: B1 heavy 1 with L11V, R16G, Y62V, S104A, S106G, A111I
heavy 2: B1 heavy 2 with K19T, I37V, P40A, Q43E, I48M, K54E, Q62E
light: B1 light with S28P, P29L, R61S
B6: TR01H084-E2702GsKsc/GCH065-E2704sEpsc/L0011-k0 (bispecific antibody, human IgG4 S228P, kappa, N297A)
heavy 1: B1 heavy 1 with L11V, R16G, S104A, S106G, A111I
heavy 2: B1 heavy 2 with K19T, Q43E, K54P, Q62E
light: B1 light with S28P, P29L, R61S
B7: TR01H084-E2702GsKsc/GCH094-E2704sEpsc/L0011-k0 (bispecific antibody, human IgG4 S228P, kappa, N297A)
heavy 1: B1 heavy 1 with L11V, R16G, S104A, S106G, A111I
heavy 2: B1 heavy 2 with K19T, I37V, P40A, Q43E, I48M, K54E, Q62E
light: B1 light with S28P, P29L, R61S
B8: TR01H082-E2702GsKsc/GCH094-E2704sEpsc/L0201-k0 (bispecific antibody, human IgG4 S228P, kappa, N297A)
heavy 1: B1 heavy 1 with A75D, I81L, S104A, S106G
heavy 2: B1 heavy 2 with K19T, I37V, P40A, Q43E, I48M, K54E, Q62E
light: B1 light with S28P, R61S
B9: TR01H040-E2702GsKsc/H0610-E2704sEpsc/L0000-k0 (bispecific antibody, human IgG4 S228P, kappa, N297A)
heavy 1: B1 heavy 1
heavy 2: B1 heavy 2
light: B1 light with P29L, R61S
B10: TR01H040-E2702GsKsc/H0610-E2704sEpsc/L0201-k0 (bispecific antibody, human IgG4 S228P, kappa, N297A)
heavy 1: B1 heavy 1
heavy 2: B1 heavy 2
light: B1 light with S28P, R61S
B11: TR01H040-E2702GsKsc/H0610-E2704sEpsc/L0203-k0 (bispecific antibody, human IgG4 S228P, kappa, N297A)
heavy 1: B1 heavy 1
heavy 2: B1 heavy 2
light: B1 light with L38I, R61S
B12: TR01H082-E2702GsKsc/GCH094-E2704sEpsc/L0011-k0 (bispecific antibody, human IgG4 S228P, kappa, N297A)
heavy 1: B1 heavy 1 with A75D, I81L, S104A, S106G
heavy 2: B1 heavy 2 with K19T, I37V, P40A, Q43E, I48M, K54E, Q62E
light: B1 light with S28P, P29L, R61S
B13: TR01H109-E2702GsKsc/GCH065-E2704sEpsc/L0011-k0 (bispecific antibody, human IgG4 S228P, kappa, N297A)
heavy 1: B1 heavy 1 with Y62V, A75D, I81L, S104A, S106G
heavy 2: B1 heavy 2 with K19T, Q43E, K54P, Q62E
light: B1 light with S28P, P29L, R61S
B14: TR01H067-E2702GsKsc/GCH054-E2704sEpsc/L0222-k0 (bispecific antibody, human IgG4 S228P, kappa, N297A)
heavy 1: B1 heavy 1 with A75D, I81L, S104A
heavy 2: B1 heavy 2 with K19T, Q43E, K54E, Q62E
light: B1 light with L38I, H39Q, R61S, G94Y
B15: TR01H067-E2702GsKsc/GCH054-E2704sEpsc/L0201-k0 (bispecific antibody, human IgG4 S228P, kappa, N297A)
heavy 1: B1 heavy 1 with A75D, I81L, S104A
heavy 2: B1 heavy 2 with K19T, Q43E, K54E, Q62E
light: B1 light with S28P, R61S
B16: TR01H109-E2702GsKsc/GCH094-E2704sEpsc/L0011-k0 (bispecific antibody, human IgG4 S228P, kappa, N297A)
heavy 1: B1 heavy 1 with Y62V, A75D, I81L, S104A, S106G
heavy 2: B1 heavy 2 with K19T, I37V, P40A, Q43E, I48M, K54E, Q62E
light: B1 light with S28P, P29L, R61S
B17: TR01H113-E2702sKsc/GCH065-E2704sEpsc/L0011-k0 (bispecific antibody, human IgG4 S228P, kappa, N297A)
heavy 1: B1 heavy 1 with L11V, R16G, Y62V, S104A, S106G, A111I, R437H
heavy 2: B1 heavy 2 with K19T, Q43E, K54P, Q62E
light: B1 light with S28P, P29L, R61S

target: extracellular matrix (BD Matrigel); assay: ECL on Matrigel-coated plate, relative to MRAH-G1d/MRAL-k0

Binder	ECM binding ratio (standard = 1)
B1	4.4
B2	3.3
B3	2.5
B4	1.7
B5	1.6
B6	1.3
B7	1.2
B8	1.1
B9	0.8
B10	0.8
B11	0.8
B12	0.7
B13	0.7
B14	0.6
B15	0.5
B16	0.4
B17	0.3
